Assay results published in article PMC6143631 (Nature Communications, 2018).

T1: Ctr9^(1–270) (S. cerevisiae, UniProt P89105 1-270)
T1 construct: S. cerevisiae Ctr9, residues 1-270
T1 sequence (looked up): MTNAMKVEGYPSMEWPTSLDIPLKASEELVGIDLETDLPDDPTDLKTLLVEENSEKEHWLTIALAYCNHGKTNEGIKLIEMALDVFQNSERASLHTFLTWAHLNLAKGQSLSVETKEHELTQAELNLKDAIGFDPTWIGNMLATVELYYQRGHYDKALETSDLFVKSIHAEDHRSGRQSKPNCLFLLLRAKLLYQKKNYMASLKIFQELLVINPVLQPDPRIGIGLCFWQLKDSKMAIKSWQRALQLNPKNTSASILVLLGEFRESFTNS

T2: Ctr9^(1–313) (S. cerevisiae, UniProt P89105 1-313)
T2 construct: In the crystal it stood as part of the single-chain fusion m36; source: E. coli BL21(DE3) Codon Plus, co-expressed with a Paf1 fragment, purified (Ni-NTA, SEC)
T2 sequence (looked up): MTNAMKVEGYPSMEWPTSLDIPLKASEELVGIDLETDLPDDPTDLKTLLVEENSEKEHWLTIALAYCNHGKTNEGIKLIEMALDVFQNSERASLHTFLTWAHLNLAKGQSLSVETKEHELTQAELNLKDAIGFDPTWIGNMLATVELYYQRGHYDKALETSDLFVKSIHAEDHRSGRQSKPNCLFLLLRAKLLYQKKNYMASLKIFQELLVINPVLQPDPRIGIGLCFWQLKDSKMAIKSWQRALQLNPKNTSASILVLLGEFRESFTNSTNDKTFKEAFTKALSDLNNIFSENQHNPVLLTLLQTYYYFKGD

B1: Paf1^(34–103) (domain or fragment, S. cerevisiae, UniProt P38351 34-103, looked up)
chain: ETNADSSQLINSLYIKTNVTNLIQQDEDLGMPVDLMKFPGLLNKLDSKLLYGFDNVKLDKDDRILLRDPR
notes: In the crystal it stood as part of the single-chain fusion m36; source: E. coli BL21(DE3) Codon Plus, co-expressed with a Ctr9 fragment, purified (Ni-NTA, SEC)

Tests used:
[1] = target: T1, Ctr9^(1–270); test: AUC; sedimentation velocity, 42,000 rpm, 4 °C, interference detection; 20 mM HEPES pH 7.5, 150 mM NaCl, 1 mM EDTA, 1 mM DTT; details: both partners purified
[2] = target: T2, Ctr9^(1–313); test: SEC; two fragments co-expressed in E. coli and co-purified; analytical size-exclusion column with SDS-PAGE of the fractions; details: both partners purified

Binder | stoichiometry N [1] | binding result [2]
B1 | 1 | –
DEDLGMPVDLMKFPGLLNKLDSKLLYGFDNVKLDKDDRILLRDPR (domain or fragment, S. cerevisiae, UniProt P38351 59-103, looked up) [Paf1^(59–103)] | – | binds
